Measurements as given in patent US7276644.

Target: actin of the acto-HMM complexes in Example II
Assay: stopped-flow; effects of ADP on ATP-mediated dissociation of acto-HMM

Substance | maximum rate constant for dissociation of acto-HMM (ATP-mediated, with ADP) [s⁻¹]
HMM from pig β cardiac myosin heavy chain (from UniProt P79293 1-1282) (enzyme) | 35
HMM from rat β cardiac myosin heavy chain (hypothyroid rat) (from UniProt P02564 1-1282) (enzyme) | 140
rat α cardiac myosin HMM (chymotryptic heavy meromyosin of native hyperthyroid rat ventricular α-myosin) (from UniProt P02563 1-1285) (enzyme) | 600
